Test results as given in the DeepSol protein solubility set.

Test: soluble on expression in E. coli; label from the status in PepcDB or PDB records
In the case of “MNQKMIIGNAEAICLPELGITHLEARIDTGAQTSSLHVDNIDCFEKDGQSYVAFDLHPDVYHLEQVVRCTAKLKANRKVKSSNGTFEHRCVITTMLRLGDQEWPIDITLTNREKMTYMMLLGRQGMADKVLVDPSQSHLLAS”, the “soluble on expression in E. coli” value is reported as “not soluble”. With “MDGIFAGIICNQANRCLTWTSQQLFSEKISGAEGTKLDDEFLDMERKIDVTNKVVAEILSKTTEYLQPNPAYRAKLGMLNTVSKIRGQVKTTGYPQTEGLLGDCMLKYGKELGEDSTFGNALIEVGESMKLMAEVKDSLDINVKQTFIDPLQLLQDKDLKEIGHHLKKLEGRRLDYDYKKKRVGKIPDEEVRQAVEKFEESKELAERSMFNFLENDVEQVSQLAVFIEAALDYHRQSTEILQELQSKLQMRISAASSVPRREYKPRPVKRSSSELNGVSTTSVVKTTGSNIPMDQPCCRGLYDFEPENQGELGFKEGDIITLTNQIDENWYEGMIHGESGFFPINYVEVIVPLPQ” the “soluble on expression in E. coli” value was “soluble”. With “SPRPPDDPGFGPHQRLEKLDSLLSDYDILSLSNIQQHSVRKRDLQTSTHVETLLTFSALKRHFKLYLTSSTERFSQNFKVVVVDGKNESEYTVKWQDFFTGHVVGEPDSRVLAHIRDDDVIIRINTDGAEYNIEPLWRFVNDTKDKRMLVYKSEDIKNVSRLQSPKVCGYLKVDNEELLPKGLVDREPPEGKT” the “soluble on expression in E. coli” value was “soluble”. With “MRGSHHHHHHGSEYPERPVNMVVPFAAGGPTDNVARSLAESMRPTLGETVVVENKGGAGGTIGTTQVARAQPDGYSILLMHAGFSTAPSLYKNPGYEPYTSFEPIGLVVDVPMTIIARGDFPPNNIKELAEYVKKNADKISLANAGIGAASHLCGTMLVEALGVNLLTIPYKGTAPAMNDLLGKQVDLMCDQTTNTTQQITSGKVKAYAVTSLKRVPTLPDLPTMDESGYKGFEVGIWHGMWAPKGTPKPVVDKLVKSLQAGLADPKFQERMKQLGAEVLTNEANPEALQAKVKQQVPQWAELFKKAGVEKQ” the “soluble on expression in E. coli” value was “soluble”. With “AKVEVGDEVGNFKFYPDSITVSAGEAVEFTLVGETPHNIVFDIPAGAPGTVASELKAASMDENDLLSEDEPSFKAKVSTPGTYTFYCTPHKSANMKGTLTVK” the “soluble on expression in E. coli” value was “soluble”. With “GRRIQGQRRGRGTSTFRAPSHRYKADLEHRKVEDGDVIAGTVVDIEHDPARSAPVAAVEFEDGDRRLILAPEGVGVGDELQVGVDAEIAPGNTLPLAEIPEGVPVCNVESSPGDGGKFARASGVNAQLLTHDRNVAVVKLPSGEMKRLDPQCRATIGVVGGGGRTDKPFVKAGNKHHKMKARGTKWPNVRGVAMNAVDHPFGGGGRQHPGKPKSISRNAPPGRKVGDIASKRTGRGGNE” the “soluble on expression in E. coli” value was “soluble”. For “MGSDKIHHHHHHMPFLLFKFPGKRVLGFSFEGRPHRHATGLSRFLDVHGAAYACELGRLSSELVGASEGALLKRLESLYDEILIDEVQDLSAHDWEIVDALLHSSIHIRMVGDIRQSVLATNPRSTKNKQYAYAETVKWFREREQLGRLAIRESVETWRCHPKIAAFSDTIFDASWAFPSTVSRNDAMTDHDGVFLLTKKHVRDYVERFAPQCLRSMAGSGKEFNLDFMNFKVAKGSTFERVLIMPTAGITDFVRKGSSLEPVPAASFYVAVTRAAQSVAMVIDNAGASTLPYWTP”, the “soluble on expression in E. coli” value was “not soluble”. For “MYCIEEKIEKALGIKEASLVLKNCNIVNVFSSEIIRGDLAIDGDTIIGIGKYKGKTEIDLSNKYVAPGFIDSHVHIESSMVSPKEFARAVISRGTTTIIVDPHEIANVCGMDGIKYMMEETKNMPLDVFFMLSSCVPLEHHHHHH”, the “soluble on expression in E. coli” value was “not soluble”. In the case of “MSLDGGYRTLAAAELFKRYGHLISPVSGPIAYLHPMPGRNAGMRHMYVAGYLVCPPSAPRENRFDKLCSGKGASDAQARASALAEALERFSGVYQGDEAALRGSLAQLSAHAPPGSGPIDVNALQQYSDRQFERRERHNATTDDPRKQVPRRFTRDSVIDWTPAWSIATGARRLVPLAYCYAETPASSGADYCVHNPNGCAAGACIEEAILQGLLELVERDAVAIWWYNMLRRPAVDIESFGDPYFDALAADYASLGWRLWALDITHDLRIPVFVALARETATGRFSIGFGCHPDSRIALQRALTEVNQLLDVGASAPPPWDVDKLPDDAFLHPDPALPPVRAPARAPHGRCDLKRDIEDCVARLAAAGIDTLVVDKTRPDIGLPVVQVIAPGLCHFWPRFGAPRLYSVPVAQRWRERPRDEDALNRAEGHHHHHH”, the “soluble on expression in E. coli” value is reported as “not soluble”. With “SRYAIYWTPEDGPLARFGRSWLGWDPVTAEPAAHPAIEDLPRDVALITQAPRKYGLHATLKPPFRLADGADVTDLHAAVVALCPYLAPVTLPGLKLDRIGGFLALVPAGNEEPLADLAAEVMRALDGFRAPLTEAELARRRPERLTPRQRGHLADWGYPYVLDDYRFHVTLTGELPEAELAEVVTVLEPLLEPILAEPVRIASLCLFAEASDGRFRMLERLPIT” the “soluble on expression in E. coli” value was “not soluble”. In the case of “MGSDKIHHHHHHMIRGEMTMPSLTFQEIDNHLMNDNKPSNFIIELNKAGIIETEYPFTLLGALKDTPQSPKHHPEGSVWNHTLMVLDNAAERKHLSQNPQVLMWAALLHDLGKAPTTRVRKGRITSYDHDAVGEKLAGQFLRELTRDERFIHQVAKMVRWHMQILFVVKGLPFANVKKMAAEVSIEEIALLGFCDRLGRGEMTPQKKQEEEQTIEKFLVRCMEILQG”, the “soluble on expression in E. coli” value is reported as “not soluble”. In the case of “MGSDKIHHHHHHMINTKEDFLLLIKQIEQKSGYKKPKAFGIARLDRGQLNKNKILQASFALINYEQNFGSAAIMLEAFMQRGVEIDFNASEFVQTLKLEDIDFALSCFKPFLEEDGHQNIDLLKIIKDKFKDDEFSFVCLFEDKEPLSVESIYLKLYLLSTKKVPLRSINLNGAFGLLSNVAWSDDKPIELEYLRANEMRLKMSNQYPKIDFVDKFPRFLAHIIPEDNTRILESSKVRMGASLAAGTTIMPGASYVNFNAGTTGACMVEGRISSSAIVGEGSDVGGGASILGVLSGTSGNAISVGKACLLGANSVTGIPLGDNCIVDAGIAVLEGTKFLLKDAEELAKLNPYFNFDKEIYKGLELKGLNGLHFRQDSISGAMIVALNKKAVKLNEALH”, the “soluble on expression in E. coli” value is reported as “not soluble”. In the case of “MQFQRARSDKQKNIRMSEIVNATINLYESLQYDKITLALIAKQLSFSRANLYKYVSTKEEIFLLIISGDIENWSKEVVKFFDKYDALSAEEFCKLWSELLYRHKRIIELFCILNTIIARNVSAEKLAAFKKQIHKDFTRTKKVVKRFFPFMSKEQLKFFIEYQMKYAVGVYPATIINDVQKKASELSGIPSNVKDFESSFSKFLMVILNGIEITI”, the “soluble on expression in E. coli” value is reported as “not soluble”. For “MVDNVLAILRMGDELADLAVDLFDGVTDPTGIAPATTRIVARAEELLSARGNGRDDIRIACGPGCMTCCTVNVSVLVPEAWTIAVWLRQHHDAGEVDRLAVRLTAAARAIRWLDDADRIRSGVTCPFLDERGWCSIHPVRPLMCRALTSTDPAQCRRALESRTSDEEVPLECNLLQKYLMEQAYRSLAAALERRGIDSAGRELVGTVARFLNEPWLADKFLVGRLITLPESLEHHHHHH”, the “soluble on expression in E. coli” value was “not soluble”. In the case of “GIDPFTRDGPLVLIGSGLSSEQQKMLSELAVILKAKKYTEFDSTVTHVVVPGDAVQSTLKCMLGILNGCWILKFEWVKACLRRKVCEQEEKYEIPEGPRRSRLNREQLLPKLFDGCYFYLWGTFKHHPKDNLIKLVTAGGGQILSRKPKPDSDVTQTINTVAYHARPDSDQRFCTQYIIYEDLCNYHPERVRQGKVWKAPSSWFIDCVMSFELLPLDS”, the “soluble on expression in E. coli” value is reported as “soluble”. For “MCSDVVAGDLNDLRIAALNLGKMSELYTNGAFVLGIAQGADTETYGRPHEWWSYVEQQLATALRFTYDRLNDGQEALLAAIDAYAYVDGDNAKGLTDVGKEYKEYISNPNNVGDEKYYDPPPLHTMVDAPDLGDKPEGWEEKYDG”, the “soluble on expression in E. coli” value was “not soluble”. With “MGSDKIHHHHHHMRIDLSLKPTPVQFLKRLSEKYGFNIYVKRDDLTELVGSGNKIRKLEYLLWEALKKGATTVFTCGGLQSNHARATAYVSRRYGLKPVLFLRKGEKVLNGNLLLDILLGAEIVEVSPEEYERIDEIFDVHKKMREKKGEKVYVIPEGGSNSLGAFGYFNAVLEMKDQLNLESFDAIVCAVGSGGTIAGLSAGISFLEYHVPVVGVNVTTKNSDYFVGKVKRIISGMEEYGLRVNETVFEVVDDYRGPGYAIPSSEDVEILKEVASIEGIILDPVYTAKAFRGMIEMFRNSEKNVLFIHTGGIFGLFAQSRRLV” the “soluble on expression in E. coli” value was “not soluble”. For “DGYIGVMIDDLVTKGTIEPYRLLTSRAEYRLILRHDNADMRLTEMGREIGLVDDERWARFEIKKNQFDNEMKRLDSIKLKPVKETNAKVEEMGFKPLTDAVTAKEFLRRPEVSYQDVVAFIGPAAEDLDDKIIELIETEIKYEGYISKAMDQVAKMKRMEEKRIPANIDWDDIDSIATEARQKFKLINPETIGQASRISGVNPADISILMVYLEG”, the “soluble on expression in E. coli” value was “not soluble”. With “MSLNKYLEQLVLLSKIDQEIDSYEPKIDSINKTLKDAELKIEKINADLEKIDEEIKDIENQKIQNNAHISEFSAKIKDLSKKSGVVKTEKEANALKIEEDIAKEQLDAANDEIVRLDKILENKETYKKELEEEKIKQEQNINEIRVSIKSEMEVLEKDRMSVYDKKTKLVSEMNQKVLSFYEKIRKWAKNTAVVPVKKQACYGCFMKIYDKTYLSVVKGEEIVTCPHCGRILYKEQEEQNEGHHHHHH” the “soluble on expression in E. coli” value was “soluble”. For “MKKIHPSAVIEEGAQLGDDVVIEAYAYVSKDAKIGNNVVIKQGARILSDTTIGDHSRVFSYAIVGDIPQDISYKEEQKSGVVIGKNATIREFATINSGTAKGDGFTRIGDNAFIMAYCHIAHDCLLGNNIILANNATLAGHVELGDFTVVGGLTPIHQFVKVGEGCMIAGASALSQDIVPFCLAEGNRASIRSLNLVGIRRRFDKDEVDRLSRAFKTLFRQGDLKENAKNLLENQESENVKKMCHFILETKRGIPVYRGKNNA”, the “soluble on expression in E. coli” value was “soluble”. For “MNEFKYNIGYALSGGFIKGFAHLGIMQALHEHGIRPEILSGVSAGALAAVFYADGKEPYHIVELFEHHSFKELTTFSINKQGLLKLDSFIDFLNSNLESKTIEELKIPTIITATDLDHGRIVSFKKGKIAERLAASCCMPILFAPIRINNTYYVDGGILMNLPVSPIRKECEKVIALNVDPLVADEYSKNVVSIALRAYHFIFQANTLPQKGIADLLIESYGLEEYSNRELERAEEIFEKGYNTATELLDRLLLENGTIWR”, the “soluble on expression in E. coli” value was “not soluble”. In the case of “MNLGLCMADPDFGVYHHSSREESERLRYMARIMFTEAFGKIGIDQDADMNIIDVGCGLGFLTILCADYFKNSRITAIDTFSMGSLKDNSRERLIENLRLADVLDRVTVVEADITKPFNIEDKFDLAVSNLVFHNTGRQRFSVYRNVWNVLKCGSYFINADGFIRKNVASIFVDPFRADMSKISSMYEPEFAMEPKDQKRNAVWRYILVGLRSKCSDV”, the “soluble on expression in E. coli” value is reported as “not soluble”. In the case of “MARNPEEAQRVVIPLGSEEALAFLGQADRNLKRLRSLFRTYLGDEVRLVSRGEQVEVLGPPEAVEKAERALRDLLALLRQGAELDEATLEQAVRLAAEGEGLYQATEPELELQLPGRLRPKTPGQKRYVEAIARHDITFGIGPAGTGKTYLAVAMAVSHLRARRVKRIILTRPAVEAGEKLGFLPGDIQAKVDPYLRPLYDALFDMIDAERFEQYLQSGIIEVAPLAFMRGRTLNDAFIILDEAQNTTPEQMKMFLTRMGFSSKMVITGDVTQIDLPKHQRSGLVEAIRILKGIEGIAFVHFKESDVVRHPLVARIIKAYEEAERGGGGAQ”, the “soluble on expression in E. coli” value is reported as “soluble”. In the case of “MAYNLKEVAKKPERLTGGHRMCAGCGAPIVVRQVLKALKPEDHAVISAATGCLEVSTFIYPYTAWKDSFIHSAFENTGATISGAEAAYKVLKKKGKIEGETKFIAFGGDGGTYDIGLQALSGAMERGHDMVYVCYDNGAYMNTGIQRSSATPKYADTTTSPVGKKIPGKMQPRKDLTEVLVNHRIPYVAQTAPFGNMKDLYEKAEKAIYTPGPAFLNVLAPCPRGWRYNTPDLMELSKLAVETCFWPLYEVIDGKYIINYKPKEKVPVKEFLKLQGRFKHLFKAGNEYMLEEIQKEVDLRWERLLKLAGEA”, the “soluble on expression in E. coli” value is reported as “not soluble”.
